Tests used:
[1] = biological target: T1, AGO2 D669A (UniProt Q9UKV8 1-859, D669A); test: hydroxyl-radical footprinting; peaks at 9-11; same at 1, 4 and 15 min; Footprinting: 18 mM HEPES pH 7.4, 100 mM KOAc, 1.2 mM Mg(OAc)2, 0.015 mg/mL BSA, 0.0015 mg/mL yeast tRNA, 0.01% IGEPAL, 8.75 mM DTT, 37 C; filter binding (titra); conditions: protein: recombinant; tags: N-terminal 3xFLAG; label: 32P 5' end of guide; guide paired to internal site of longer target
[2] = biological target: T1, AGO2 D669A; test: hydroxyl-radical footprinting; elevated reactivity at 9-11; Footprinting: 18 mM HEPES pH 7.4, 100 mM KOAc, 1.2 mM Mg(OAc)2, 0.015 mg/mL BSA, 0.0015 mg/mL yeast tRNA, 0.01% IGEPAL, 8.75 mM DTT, 37 C; filter binding (titra); conditions: protein: recombinant; tags: N-terminal 3xFLAG; label: 32P 5' end of guide; complementary up to guide position 16

T1 sequence (Q9UKV8 whole entry D669A): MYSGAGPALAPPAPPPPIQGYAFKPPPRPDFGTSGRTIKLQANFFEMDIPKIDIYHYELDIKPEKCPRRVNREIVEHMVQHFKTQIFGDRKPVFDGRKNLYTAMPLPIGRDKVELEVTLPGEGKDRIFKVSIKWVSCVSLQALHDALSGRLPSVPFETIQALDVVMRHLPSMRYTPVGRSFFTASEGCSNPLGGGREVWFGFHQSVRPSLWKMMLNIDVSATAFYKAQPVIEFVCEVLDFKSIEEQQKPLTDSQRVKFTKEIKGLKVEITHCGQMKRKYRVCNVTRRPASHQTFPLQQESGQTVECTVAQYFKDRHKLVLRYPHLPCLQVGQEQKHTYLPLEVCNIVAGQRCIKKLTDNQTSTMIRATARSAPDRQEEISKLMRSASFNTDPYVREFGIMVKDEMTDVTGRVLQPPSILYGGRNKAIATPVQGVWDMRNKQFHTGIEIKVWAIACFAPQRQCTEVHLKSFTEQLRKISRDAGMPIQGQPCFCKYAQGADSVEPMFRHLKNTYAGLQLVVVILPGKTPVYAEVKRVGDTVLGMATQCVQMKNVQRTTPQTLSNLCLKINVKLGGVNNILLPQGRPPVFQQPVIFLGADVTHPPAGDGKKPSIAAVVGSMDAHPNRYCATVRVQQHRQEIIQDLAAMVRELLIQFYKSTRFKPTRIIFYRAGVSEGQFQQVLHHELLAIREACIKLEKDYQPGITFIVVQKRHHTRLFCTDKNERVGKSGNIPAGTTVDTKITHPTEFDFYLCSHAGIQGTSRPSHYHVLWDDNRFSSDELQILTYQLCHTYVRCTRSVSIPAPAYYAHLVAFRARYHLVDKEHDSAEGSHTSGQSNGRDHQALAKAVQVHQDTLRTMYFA

| Binder | binding result [1] | binding result [2] |
| --- | --- | --- |
| miR-196a guide + perfect target (dsRNA, guide 5' phosphate) RNA 1: UAGGUAGUUUCAUGUUGUUGGG RNA 2: GGGAACAACAACAACAACAACAACAACAACAACCCAACAACAUGAAACUACCUAAACAACAACAACAACA | binds |  |
| miR-124 guide + 16-bp target (dsRNA, guide 5' phosphate) RNA 1: UAAGGCACGCGGUGAAUGCCAA RNA 2: GGGAACAACAACAACAACAACAACAACAACAAAAUUUUUUCACCGCGUGCCUUAAACAACAACAACAACA |  | binds |
